B1: Cj-DLP1_(∆trunk) (natural protein)
chain: MKELFQKIWQNELQFLNFDAKFQDKSKLDTAECAIILSVNKDNYERYFLLKEFQELCKKIDLRVDIFSMQNAQICILNLFKSGFISKQDLLKALKILEKISKNTEIFDFILQEKVQSIDQKALFQNDFKELNTINLELQKLSFDENLKSRLQKTLEKFQNLEFNIAITGVMNAGKSSLLNALLKEDFLGVSNIPETANLTVLSYGKSEEAKIYFWDKKEWQNILESSHFNADLKEFIDKLDKSVNIEDFIKDKPLIQNIALCELKNFSSAKNKISALIKKIEIKSHLEFLKNNISIVDTPGLDDVVVQREIVTNEYLRESDFLIHLMNASQSLTQKDADFLVHCLLNSRLSKFLIVLTKADLLSKKDLEEVIVYTKESLKSRLVDLDENLVEKIDFLCVSAKMASDFYKGLASKESLQKSGMQEFENYLFNELYAGEKSKIALRAYKKELHLELKNILSEYEMQNRLIKLKNQDANILNSFEENLEKIEKLKQLEMGLLNAD
notes: Cj-DLP1 of Campylobacter jejuni (cj0411) with amino acids 470-695 (trunk) deleted; also called Cj-DLP1 with the trunk removed; source: E. coli BL21 (DE3), expressed and purified as for native
B2: Cj-DLP1 (natural protein, Campylobacter jejuni, UniProt A0A0H3PJL7 1-728, looked up)
chain: MKELFQKIWQNELQFLNFDAKFQDKSKLDTAECAIILSVNKDNYERYFLLKEFQELCKKIDLRVDIFSMQNAQICILNLFKSGFISKQDLLKALKILEKISKNTEIFDFILQEKVQSIDQKALFQNDFKELNTINLELQKLSFDENLKSRLQKTLEKFQNLEFNIAITGVMNAGKSSLLNALLKEDFLGVSNIPETANLTVLSYGKSEEAKIYFWDKKEWQNILESSHFNADLKEFIDKLDKSVNIEDFIKDKPLIQNIALCELKNFSSAKNKISALIKKIEIKSHLEFLKNNISIVDTPGLDDVVVQREIVTNEYLRESDFLIHLMNASQSLTQKDADFLVHCLLNSRLSKFLIVLTKADLLSKKDLEEVIVYTKESLKSRLVDLDENLVEKIDFLCVSAKMASDFYKGLASKESLQKSGMQEFENYLFNELYAGEKSKIALRAYKKELHLELKNILSEYEMQNRLIKENKQGVSEENQKLLLELQKQNTLLKEAQDEISNSIAKLKNIDSGIDNLVLLLAKKLKERLIDEFKYLKNNAQKLNLSRILNIVDITTKDGINDILREIKFENIKKIEELKTNLSLKYDFLKDDFDNGFEGFKDGISKNIDSIFQSEKFALLRLKIEKLSNLKSDLYELETNLDTVIFDTFKEFKMSEILNSLNINGAFFEFLNDKLKHYEKNQKSKLESLEKVLQSLKNQDANILNSFEENLEKIEKLKQLEMGLLNAD
notes: Cj-DLP1, dynamin-like protein of Campylobacter jejuni, gene cj0411, full-length protein, 84.5 kDa; Monomer alone; Two copies stand in the 2:2 tetramer with Cj-DLP2; also called cj0411; CJ0411; source: E. coli BL21 (DE3), purified (HisTrap, gel filtration)
B3: Cj-DLP2_(∆trunk-tip) (natural protein)
chain: MQINLLNDFIKAYENTYSVSFDDSFKGRIQELCKELNEPFMHASYALENELKELVFSLDKNVNIAIIGQFSSGKSSLLNLILGRDCLPTGVVPVTFKPTFLRYAKEYFLRVEFEDGSDIITNIEKLAFYTDQRNEVKQAKSLHIFAPIPLLEKITLVDTPGLNANENDTLTTLDELKNIHGAIWLSLIDNAGKKSEEDAIKANLELLGENSICVLNQKDKLSAEELDNVLNYAKSVFLKYFNELIAISCKEAKDEQSYEKSNFQSLLDFLTQLDTTVLKEKFVKRKILNLCEILEDENQLFVGIFDRLLNQFQSYEKHLLLAYENFLKEIEILNHQILEQLKSISERMSKEFKKIKNELYKSFEEIKMKLKDFINILEREILLFKAEFSNIQKDHIFQSDKNFSELRAFCNASDEYFLKDFKELLFKSILELDLFFEKLNLKAFTNYENATKLSRVLNELNVYEFETLLINKPILTKIAKNFLEQSQNLIQEKNKFLDLKKAELQKRRAQILNVRESIKED
notes: Cj-DLP2 of Campylobacter jejuni (cj0412) with amino acids 348-401 and 509-542 within the trunk tip removed; also called Cj-DLP2 with the trunk tip removed; source: E. coli BL21 (DE3), expressed and purified as for native; not shown: MBP, N-terminal, cleaved
B4: Cj-DLP2 (natural protein, Campylobacter jejuni)
chain: MQINLLNDFIKAYENTYSVSFDDSFKGRIQELCKELNEPFMHASYALENELKELVFSLDKNVNIAIIGQFSSGKSSLLNLILGRDCLPTGVVPVTFKPTFLRYAKEYFLRVEFEDGSDIITNIEKLAFYTDQRNEVKQAKSLHIFAPIPLLEKITLVDTPGLNANENDTLTTLDELKNIHGAIWLSLIDNAGKKSEEDAIKANLELLGENSICVLNQKDKLSAEELDNVLNYAKSVFLKYFNELIAISCKEAKDEQSYEKSNFQSLLDFLTQLDTTVLKEKFVKRKILNLCEILEDENQLFVGIFDRLLNQFQSYEKHLLLAYENFLKEIEILNHQILEQLKSISERISSEIFASVKEKDAYFYKESKGFLKKDLYTRYDYKAPYISSDDAFLAMFYNSDVMSKEFKKIKNELYKSFEEIKMKLKDFINILEREILLFKAEFSNIQKDHIFQSDKNFSELRAFCNASDEYFLKDFKELLFKSILELDLFFEKLNLKAFTNYENATKLSLAFFSRKINESRVLYELDSSEFVLFYPKKSEIYERVLNELNVYEFETLLINKPILTKIAKNFLEQSQNLIQEKNKFLDLKKAELQKRRAQILNVRESIKED
notes: Cj-DLP2, dynamin-like protein of Campylobacter jejuni, gene cj0412, 71.2 kDa; Monomer alone; Two copies stand in the 2:2 tetramer with Cj-DLP1; also called cj0412; CJ0412; source: E. coli BL21 (DE3), purified (amylose resin, TEV cleavage, gel filtration); not shown: MBP, N-terminal, cleaved

What was measured:
Details in all cases: both partners purified
[1] = biological target: B4; assay: SEC-MALS; the two proteins mixed; 100 μl at 1–2 mg/ml on Superdex 200 10/300 GL in TEN 7.5 (20 mM Tris pH 7.5, 1 mM EDTA, 1 mM sodium azide), 1 mM DTT
[2] = biological target: B2; assay: as above
[3] = biological target: B2; assay: crystal structure; Cj-DLP1/2 tetramer, apo (3.7 Å) and with GDP·AlF4¯ (3.9 Å), space group P2(1)2(1)2(1); sitting drop, 0.7–1.0 M succinate pH 7.0, 20 °C

B1
binding result [1]: binds

B2
stoichiometry N [1]: 1 Cj-DLP1 per Cj-DLP2 (2:2 tetramer)

B3
binding result [2]: binds

B4
binding result [3]: binds

Source: PMC6104087, “Structural basis for membrane tethering by a bacterial dynamin-like pair” (Nature Communications, 2018)
